According to article PMC12481158:

Molecular target: CHLOROPLAST UNUSUAL POSITIONING 1 with C-terminal GFP (CHUP1:GFP) (N. benthamiana)
Assay: FRET or BRET; nonfitting FLIM-FRET (average-arrival-time FRET) in planta; CHUP1:GFP donor, KAC1:RFP acceptor; mean weighted photon arrival time on chloroplasts juxtaposed to the PM

## KINESIN-LIKE PROTEIN FOR ACTIN-BASED CHLOROPLAST MOVEMENT 1 with C-terminal RFP (KAC1:RFP) (natural protein)
  decrease in donor lifetime against CHUP1:GFP alone: 143 ps
  donor (CHUP1:GFP) fluorescence lifetime with KAC1:RFP: 2.27 ns
